From article PMC12902261
pKd: −log10 of the molar value.

Target: NbMTA (Nicotiana benthamiana) (UniProt A0A1J6JV69)
Test: BLI
Conditions: Octet RED 96, Super Streptavidin sensors, 100 nM biotinylated ssRNA loaded, NbMTA (50 nM stated; serial dilutions), equilibration in 0.01 M saline, PBS …

Sequence	pKd
UGCAGUUCGUUCAUCACCAAGCUACGACGUCACUUGCAAAGGAUCUCAAGUUGAAGGGGACUUGGAAGAAGUCAUUAGUGGCCAAAGACUUGAUCAUAGCAGGCGCUGUUGCAAUUGGUGGAAUAGGACUCAUAUAUAGUUGGUUCACACAAUCAGUUGAGACUGUGUCUCACCAA [PVY 6K2 peak 2-1 probe]	< 4.52
UCUGGGACACAUACUGUGCCGAGAAUCAAGGCUAUCACGUCCAAAAUGAGAAUGCCCAAAAGCAAGGGAGCAACCGUGCUAAACUUAGAACACUUGCUUGAGUAUGCUCCACAACAAAUUGAUAUUUCAAAUACUCGGGCAACUCAAUCACA [PVY CP peak 3 probe]	5.51
GGGAAAAAUAAAUCCAAAAGAAUUCAAGCCUUGAAGUUUCGCCAUGCUCGUGACAAAAGGGCUGGUUUUGAAAUUGACAACAAUGAUGACACAAUAGAGGAAUUCUUUGGAUCUGCAUACAGGAAAAAGGGAAAAGGUAAAGGUACCACUGUUGGUAUGGGCAAGUCAAGCAGAAGGUUUGUUAA [PVY NIa peak 2-1 probe]	< 4.52
